Assay results as given in patent US20210139568A1 (AXON NEUROSCIENCE, published 2021).

What was measured:
[1] = target: in vitro phosphorylated tau deletion mutant tau 221-441 (human, UniProt P10636 538-758, phosphorylated in vitro with rat brain kinase extract; sites not listed); experiment: immunoblot of in vitro phosphorylated tau deletion mutants
[2] = target: T1, in vitro phosphorylated tau 2N4R point mutant Thr217Ala (human, UniProt P10636 1-758, phosphorylated in vitro with rat brain kinase extract; sites not listed); experiment: immunoblot of in vitro phosphorylated tau 2N4R point mutants
T1 construct: also called Thr217A1a
T1 sequence (P10636 other isoform, or with tags, fused parts or gaps T217A T217A limits assumed): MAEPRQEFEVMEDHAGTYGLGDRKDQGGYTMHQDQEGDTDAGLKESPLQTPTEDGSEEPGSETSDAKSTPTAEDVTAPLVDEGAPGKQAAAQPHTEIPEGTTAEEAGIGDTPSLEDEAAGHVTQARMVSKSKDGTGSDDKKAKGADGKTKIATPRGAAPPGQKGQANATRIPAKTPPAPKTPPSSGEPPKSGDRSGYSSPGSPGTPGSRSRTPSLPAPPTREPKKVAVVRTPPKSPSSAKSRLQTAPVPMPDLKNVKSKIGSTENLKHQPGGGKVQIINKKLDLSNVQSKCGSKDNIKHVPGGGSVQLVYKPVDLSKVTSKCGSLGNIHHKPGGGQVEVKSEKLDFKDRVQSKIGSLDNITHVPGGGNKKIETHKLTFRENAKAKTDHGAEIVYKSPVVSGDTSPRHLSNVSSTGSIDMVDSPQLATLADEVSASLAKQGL
Protocol: Soluble tau proteins were diluted with an equal volume of 2×SDS (sodium dodecylsulfate) sample loading buffer (with β-mercaptoethanol) (Laemmli, 1970) and 250 ng of proteins were loaded per lane. For insoluble PHF-tau, the pellets were dissolved in 1×SDS-sample loading buffer, in 1/50 volume of the soluble fraction used for the preparation of the insoluble tau fraction. Then, equal volumes of soluble tau and sarkosyl-insoluble tau fractions were used for immunoblotting, which corresponded to 15 μg of total protein in the soluble fraction (see Filipcik et al. 2010). Samples were heated at 95° C. for 5 min, loaded onto 5-20% gradient SDS polyacrylamide gels, and electrophoresed in a Tris-glycine-SDS buffer system for 40 minutes at 25 mA. Proteins were transferred to a polyvinylidene fluoride (PVDF) membrane (1 h at 150 mA in 10 mM CAPS, pH 12). […] The blots were developed with SuperSignal West Pico Chemiluminescent Substrate (Pierce, U.S.A), and the protein signals detected using a LAS3000 imaging system (FUJI Photo Film Co., Japan). The chemiluminescence signal intensities were quantified using AIDA (Advanced Image Data Analyzer, Raytest, Straubenhardt, Germany) software. […]

in vitro phosphorylated tau deletion mutant tau 221-441, sequence (P10636 other isoform, or with tags, fused parts or gaps mutant): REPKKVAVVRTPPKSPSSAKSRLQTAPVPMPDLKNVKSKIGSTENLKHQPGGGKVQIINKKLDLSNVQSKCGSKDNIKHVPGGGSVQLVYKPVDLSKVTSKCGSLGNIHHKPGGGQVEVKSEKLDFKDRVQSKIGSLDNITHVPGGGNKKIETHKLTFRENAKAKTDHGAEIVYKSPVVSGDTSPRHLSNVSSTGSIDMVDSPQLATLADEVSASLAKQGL

binding result [1]: no binding
binding result [2]: no binding
B1: monoclonal antibody DC2E7 (antibody, mouse IgG2a, V domains shown)
VH: DVQLVESGGGLVQPGGSRKLSCAASGFTFSSFGMHWVRQAPEKGLEWVAYISGDSNTIYYADTVKGRFTISRDNPKNTLFLQMTSLRSEDTAIYYCARTLAYWGQGTLVTVS
VL: DIQMTQSSSSFSVSLGDRVTITCKASEDIYNRLAWYQQTPGNAPSLLISGASGLETGVPSRFSGSGSGRDYTLSITSLQTEDVATYYCLQYWSIPWTFGGGTKLEIKR
notes: also called DC217 (apparent misprint)
